According to PMC8324831, “A synthetic nanobody targeting RBD protects hamsters from SARS-CoV-2 infection” (Nature Communications, 2021):
Changes are numbered by the printed parent chain.

Biological target: SARS-CoV-2 S-RBD with Avi-tag and deca-His tag (residues 330-531) (SARS-CoV-2, UniProt P0DTC2, biotin on the Avi tag (BirA) where immobilised on streptavidin sensors or used in ELISA and FSEC)

B1: SR7 (VHH)
VHH: QVQLVESGGGLVQAGGSLRLSCAASGFPVWSNEMEWYRQAPGKEREWVAAITSYGTTEYADSVKGRFTISRDNAKNTVYLQMNSLKPEDTAVYYCYVYVGYSYIGQGTQVTVS
B1: binds.

B2: SR31 (VHH)
VHH: QVQLVESGGGLVQAGGSLRLSCAASGFPVWQGEMAWYRQAPGKEREWVAAISSMGYKTYYADSVKGRFTISRDNAKNTVYLQMNSLKPEDTAVYYCAVMVGFWYAGQGTQVTVS
B2: binds.

B3: SR32 (VHH)
VHH: B2 VHH with W30N, Q31V, G32A, E33K, S52D, M54H, Y56A, K57Q, Y59H, M99H
B3: binds.

B4: SR6 (VHH)
VHH: QVQLVESGGGLVQAGGSLRLSCAASGFPVGQQEMTWYRQAPGKEREWVAAILSEGNGTEYADSVKGRFTISRDNAKNTVYLQMNSLKPEDTAVYYCAVYVGATYIGQGTQVTVS
B4: binds.

B5: SR38 (VHH)
VHH: B4 VHH with G30N, Q32E, T35E, L52K, E54W, N56T, G57L, E59A, Y99H, A102Q
B5: binds.

B6: SR42 (VHH)
VHH: B4 VHH with G30Q, Q32R, L52M, E54K, N56V, G57H, A97H, T103S, I105F
B6: binds.

B7: SR10 (VHH)
VHH: B4 VHH with G30N, Q31K, Q32R, L52T, N56R, G57S, A97Y, Y99F, A102S, T103S
B7: binds.

B8: SR44 (VHH)
VHH: QVQLVESGGGLVQAGGSLRLSCAASGFPVGTAQMAWYRQAPGKEREWVAAITSYGEYTLYADSVKGRFTISRDNAKNTVYLQMNSLKPEDTAVYYCAVHVGFWYTGQGTQVTVS
B8: binds.

B9: SR1 (VHH)
VHH: QVQLVESGGGLVQAGGSLRLSCAASGFPVAAYEMEWYRQAPGKEREWVAAINSMGDQTYYADSVKGRFTISRDNAKNTVYLQMNSLKPEDTAVYYCYVYVGFSYIGQGTQVTVS
B9: binds.

B10: SR23 (VHH)
VHH: B9 VHH with A30Y, A31T, Y32S, N52A, M54T, D56A, Q57E, Y59A, F102R
B10: binds.

B11: SR30 (VHH)
VHH: B9 VHH with A30R, A31K, Y32H, N52S, M54K, D56S, Q57N, F102A
B11: binds.

B12: SR9 (VHH)
VHH: B9 VHH with A30I, N52T, M54S, D56T, Q57S, F102Q, I105L
B12: binds.

B13: SR8 (VHH)
VHH: B9 VHH with A30Y, A31K, Y32R, E35T, N52S, M54K, D56V, Q57H, Y59E, F102K
B13: binds.

B14: SR39 (VHH)
VHH: B9 VHH with A30D, Y32S, N52E, M54Q, D56Y, Q57E, F102S
B14: binds.

B15: SR41 (VHH)
VHH: B9 VHH with A30G, A31S, Y32T, N52S, M54T, D56H, Q57Y, Y59H, F102G, I105L
B15: binds.

B16: SR29 (VHH)
VHH: B4 VHH with G30S, Q32R, L52E, N56E, G57Q, A97Y, A102R, T103S
B16: binds.

B17: SR40 (VHH)
VHH: B9 VHH with A30D, A31S, Y32Q, N52S, M54N, D56K, Q57S, F102L
B17: binds.

B18: SR5 (VHH)
VHH: B9 VHH with S21R, A30E, A31T, Y32T, N52S, M54Y, D56S, Q57E, F102T, I105L
B18: binds.

B19: SR36 (VHH)
VHH: B9 VHH with A30Y, A31M, Y32E, N52A, M54Y, D56S, Q57E, F102Q
B19: binds.

B20: SR15 (VHH)
VHH: B9 VHH with A30K, A31H, Y32A, N52S, M54N, D56S, Q57E, Y99W, F102Q
B20: binds.

B21: SR17 (VHH)
VHH: B9 VHH with A30E, A31G, Y32S, N52E, M54N, D56T, Q57H, Y59H, F102A, S103G
B21: binds.

B22: SR37 (VHH)
VHH: B4 VHH with G30S, Q31T, Q32A, L52E, E54Y, G57S, A97Y, A102Y, T103S
B22: binds.

B23: SR2 (VHH)
VHH: B4 VHH with G30K, L52E, E54N, N56H, A97Y, A102Q, T103S
B23: binds.

B24: SR43 (VHH)
VHH: B9 VHH with A30K, A31K, Y32H, N52Q, M54K, D56Y, Q57T, F102E
B24: binds.

B25: SR16 (VHH)
VHH: B9 VHH with A30K, A31K, E35T, N52T, M54K, D56T, Q57Y, F102Y, I105L
B25: binds.

B26: SR28 (VHH)
VHH: B9 VHH with A30K, A31M, Y32A, N52Q, M54A, D56R, Q57E, F102A, S103G
B26: binds.

B27: SR19 (VHH)
VHH: B9 VHH with A30N, A31T, Y32M, M54S, D56Q, Q57E, F102Q
B27: binds.

B28: SR11 (VHH)
VHH: B9 VHH with A30Y, A31S, Y32M, N52S, M54W, D56N, Q57E, Y59H, F102A
B28: binds.

B29: SR25 (VHH)
VHH: B9 VHH with A30N, A31T, Y32A, E35V, N52Y, M54E, D56P, Q57I, Y59E, F102S
B29: binds.

B30: SR22 (VHH)
VHH: B9 VHH with A31S, Y32H, N52A, M54S, D56Q, Q57W, F102Q
B30: binds.

B31: SR26 (VHH)
VHH: B9 VHH with A30N, A31T, Y32R, N52S, M54N, D56H, Q57K, F102R
B31: binds.

B32: SR20 (VHH)
VHH: B9 VHH with A30T, A31S, N52A, M54W, D56Y, Q57H, F102G
B32: binds.

B33: SR13 (VHH)
VHH: B9 VHH with A30D, A31Y, Y32M, Y37F, N52T, M54N, D56R, Q57E, I70V, F102S
B33: binds.

B34: SR33 (VHH)
VHH: B9 VHH with A30G, A31S, Y32N, N52Q, M54S, D56V, Q57F, F102G, I105L
B34: binds.

B35: SR3 (VHH)
VHH: B9 VHH with A30W, A31Q, Y32E, N52T, M54Y, Q57T, Y97V, F102G, S103T
B35: binds.

B36: SR18 (VHH)
VHH: B9 VHH with A30W, A31F, Y32Q, N52S, M54Q, D56T, Q57H, F102A, I105L
B36: binds.

B37: SR12 (VHH)
VHH: B9 VHH with A30N, A31M, Y32Q, N52S, M54T, D56W, Q57V, F102A
B37: binds.

B38: SR21 (VHH)
VHH: B9 VHH with A30S, A31K, Y32T, N52A, M54A, D56A, Q57E, F102Q
B38: binds.

B39: SR24 (VHH)
VHH: B4 VHH with G30N, Q31A, Q32M, L52M, N56T, G57W, A97Y, T103S
B39: binds.

B40: SR34 (VHH)
VHH: QVQLVESGGGLVQAGGSLRLSCAAGGFPVKDHEMEWYRQAPGKEREWVAAITSSGWGTNTYYADSVKGRFTISRDNAKNTVYLQMNSLKPEDTAVYYCYVYVGSSYIGQGTQVTVS
B40: binds.

B41: SR14 (VHH)
VHH: QVQLVESGGGLVQAGGSLRLSCAASGFPVDSEEMTWYRQAPGKEREWVAAITSDGDITEYADSVKGRFTISRDNAKNTVYLQMNSLKPEDTAVYYCYVWVGRSYLGQGTQVTVS
B41: binds.

B42: SR27 (VHH)
VHH: QVQLVESGGGLVQAGGSLRLSCAASGFPVWEAEMEWYRQAPGKEREWVAAISSIGTSTAYADSVKGRFTISRDNAKNTVYLQMNSLKPEDTAVYYCIVYVGKTYIGQGTQVTVS
B42: binds.

B43: SR35 (VHH)
VHH: QVQLVESGGGLVQAGGSLRLSCAASGFPVKHQTMEWYRQAPGKEREWVAAIMSKGRKTEYADSVKGRFTISRDNAKNTVYLQMNSLKPEDTAVYHCHVYVGATYFGQGTQVTVS
B43: binds.
